Reference: publication PMC4150762, “The DEAD-box helicase Ded1 from yeast is an mRNP cap-associated protein that shuttles between the cytoplasm and nucleus” (Nucleic Acids Research, 2014)

What was measured:
Ded1-His6 [1] = molecular target: T1, Ded1-His6 (S. cerevisiae, UniProt P06634 1-604); assay: cell-based or functional assay
GST-NAB2-HIS6 = molecular target: T2, GST-NAB2-HIS6 (S. cerevisiae, UniProt P32505 1-525); assay: pull-down; 7-methyl-GTP Sepharose beads loaded with 5 μg purified eIF4E or Cbp20, 5 μg of the purified proteins added with 50 U RNase I, 90 min on ice, TpB buffer (20 mM HEPES pH 7.9, 100 mM KCl, 2 mM MgCl2, 2 mM DTT), eluted with 1 mM 7-methyl-GTP; Coomassie-stained SDS PAGE; settings: both partners purified
T2 construct: source: E. coli, purified on nickel-agarose
T2 sequence (looked up): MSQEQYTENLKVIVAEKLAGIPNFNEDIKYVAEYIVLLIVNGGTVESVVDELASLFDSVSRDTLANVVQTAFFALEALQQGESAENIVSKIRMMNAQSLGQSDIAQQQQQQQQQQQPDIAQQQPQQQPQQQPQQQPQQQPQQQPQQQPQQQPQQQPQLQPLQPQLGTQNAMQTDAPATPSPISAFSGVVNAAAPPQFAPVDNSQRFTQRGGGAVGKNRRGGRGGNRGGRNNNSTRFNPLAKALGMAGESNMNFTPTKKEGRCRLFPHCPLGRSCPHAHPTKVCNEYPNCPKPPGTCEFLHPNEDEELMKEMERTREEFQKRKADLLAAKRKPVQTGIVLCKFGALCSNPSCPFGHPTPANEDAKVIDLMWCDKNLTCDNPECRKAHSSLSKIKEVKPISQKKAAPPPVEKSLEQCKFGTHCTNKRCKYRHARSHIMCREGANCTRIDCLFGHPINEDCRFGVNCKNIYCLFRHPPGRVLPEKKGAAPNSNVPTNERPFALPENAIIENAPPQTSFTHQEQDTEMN

Ded1-His6 [2] = molecular target: T1, Ded1-His6; assay: pull-down; Ded1 bound to protein A Sepharose beads crosslinked to IgG against Ded1, incubated with single purified proteins, washed, eluted; Coomassie-stained SDS PAGE, western blot for Pab1 and Cbp80; same results with or without RNase I or AMP-PNP; settings: both partners purified

T1 sequence (P06634 whole entry): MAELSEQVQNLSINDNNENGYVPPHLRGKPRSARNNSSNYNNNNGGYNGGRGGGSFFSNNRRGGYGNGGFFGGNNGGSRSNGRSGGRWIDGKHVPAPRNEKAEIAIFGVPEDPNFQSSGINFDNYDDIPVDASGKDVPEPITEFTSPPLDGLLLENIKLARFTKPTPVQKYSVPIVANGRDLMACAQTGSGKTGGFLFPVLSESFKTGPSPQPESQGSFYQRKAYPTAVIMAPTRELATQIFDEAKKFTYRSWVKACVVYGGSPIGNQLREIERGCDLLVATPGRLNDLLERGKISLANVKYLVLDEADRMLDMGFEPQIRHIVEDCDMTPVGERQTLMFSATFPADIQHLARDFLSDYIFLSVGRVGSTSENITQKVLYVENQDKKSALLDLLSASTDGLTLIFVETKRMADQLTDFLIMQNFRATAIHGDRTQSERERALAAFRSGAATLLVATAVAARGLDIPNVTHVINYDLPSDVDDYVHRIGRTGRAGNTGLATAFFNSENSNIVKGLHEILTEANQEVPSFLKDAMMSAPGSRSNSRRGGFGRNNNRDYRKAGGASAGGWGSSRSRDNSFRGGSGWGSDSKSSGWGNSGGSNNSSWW

B1: His6-Cbp20 (natural protein, S. cerevisiae, UniProt Q08920 1-208, looked up)
chain: MSLEEFDEVKYDHSTKRLDTPSRYLLRKARRNPNGLQELRESMKSSTIYVGNLSFYTSEEQIYELFSKCGTIKRIIMGLDRFKFTPCGFCFIIYSCPDEALNALKYLSDTKLDEKTITIDLDPGFEDGRQFGRGKSGGQVSDELRFDFDASRGGFAIPFAERVGVPHSRFDNSSSQSNTNNYIPPPDAMGTFRPGFDEEREDDNYVPQ
notes: Cbp20 of S. cerevisiae subcloned from pRSETC20 into the NdeI-BamHI sites of pET19b; Printed name His6-Cbp20; also called Cpb20; source: E. coli (pET19b), purified on nickel-agarose
- RNA-dependent ATPase activity, % Ded1 (Ded1-His6 [1]): 97%
- binding result (GST-NAB2-HIS6): binds

B2: eIF4G-His6 fragment 387–952 (domain or fragment, S. cerevisiae, UniProt P39935 387-952, looked up)
chain: AGTKIGLEAEIETTTDETDDGTNTVSHILNVLKDATPIEDVFSFNYPEGIEGPDIKYKKEHVKYTYGPTFLLQFKDKLNVKADAEWVQSTASKIVIPPGMGRGNRSRDSGRFGNNSSRGHDFRNTSVRNMDDRANSRTSSKRRSKRMNDDRRSNRSYTSRRDRERGSYRNEEKREDDKPKEEVAPLVPSANRWVPKFKSKKTEKKLAPDGKTELLDKDEVERKMKSLLNKLTLEMFDAISSEILAIANISVWETNGETLKAVIEQIFLKACDEPHWSSMYAQLCGKVVKELNPDITDETNEGKTGPKLVLHYLVARCHAEFDKGWTDKLPTNEDGTPLEPEMMSEEYYAAASAKRRGLGLVRFIGFLYRLNLLTGKMMFECFRRLMKDLTDSPSEETLESVVELLNTVGEQFETDSFRTGQATLEGSQLLDSLFGILDNIIQTAKISSRIKFKLIDIKELRHDKNWNSDKKDNGPKTIQQIHEEEERQRQLKNNSRSNSRRTNNSSNRHSFRRDAPPASKDSFITTRTYSQRNSQRAPPPKEEPAAPTSTATNMFSALMGESDDEE
notes: Not among the constructs of the methods
- binding result (Ded1-His6 [2]): binds
